Source: patent US20030186223A1, “Modular recombinatorial display libraries” (Dyax Corp., priority 2002, published 2003)
Positions of bridges follow the written chain, without caps; N, C: chain ends. No end group written: not given here.

B1: SEQ ID NO 12 phage isolate (peptide, not shown: large carriers; small tags and cut ends)
peptide: AHQCHHWTSGPYGEVCFNY
modifications: disulfide 4-16 (inferred); also: displayed on M13 phage fused to protein III via linkers
B2: SEQ ID NO 10 phage isolate (peptide, not shown: large carriers; small tags and cut ends)
peptide: RLDCDMVFSGPHGKICVNY
modifications: disulfide 4-16 (inferred); also: displayed on M13 phage fused to protein III via linkers
B3: SEQ ID NO 49 synthetic polypeptide (peptide)
chain: Ac-SGRLDCDKVFSGPYGKVCVSYGS
modifications: cysteine pairing not given here
B4: SEQ ID NO 22 synthetic polypeptide (peptide)
chain: Ac-SGRTTCHHQISGPHGKICVNYGS
modifications: cysteine pairing not given here
B5: SEQ ID NO 45 phage isolate (peptide, not shown: large carriers; small tags and cut ends)
peptide: RTTCHHQISGPYGDICVKY
modifications: disulfide 4-16 (inferred); also: displayed on M13 phage fused to protein III via linkers
B6: SEQ ID NO 43 phage isolate (peptide, not shown: large carriers; small tags and cut ends)
peptide: SNKCDHYQSGPFGDICVSY
modifications: disulfide 4-16 (inferred); also: displayed on M13 phage fused to protein III via linkers
B7: SEQ ID NO 42 phage isolate (peptide, not shown: large carriers; small tags and cut ends)
peptide: SNKCDHYQSGPFGDVCVSY
modifications: disulfide 4-16 (inferred); also: displayed on M13 phage fused to protein III via linkers
B8: SEQ ID NO 44 phage isolate (peptide, not shown: large carriers; small tags and cut ends)
peptide: RTTCHHQISGPFGPVCVNY
modifications: disulfide 4-16 (inferred); also: displayed on M13 phage fused to protein III via linkers

The molecules below were run against T1, KDR-Fc fusion protein (Homo sapiens, UniProt P35968) (assay: BIAcore surface plasmon resonance binding of synthetic polypeptides to immobilized KDR-Fc). Settings: BIAcore SPR; KDR-Fc fusion immobilized on chip; synthetic polypeptide with acetyl-Ser-Gly- and -Gly-Ser flanks.
T1 construct: purchased R & D Systems (Minneapolis, Minn.) 357-KD-050
T1 sequence (P35968 with tags, fused parts or gaps limits assumed): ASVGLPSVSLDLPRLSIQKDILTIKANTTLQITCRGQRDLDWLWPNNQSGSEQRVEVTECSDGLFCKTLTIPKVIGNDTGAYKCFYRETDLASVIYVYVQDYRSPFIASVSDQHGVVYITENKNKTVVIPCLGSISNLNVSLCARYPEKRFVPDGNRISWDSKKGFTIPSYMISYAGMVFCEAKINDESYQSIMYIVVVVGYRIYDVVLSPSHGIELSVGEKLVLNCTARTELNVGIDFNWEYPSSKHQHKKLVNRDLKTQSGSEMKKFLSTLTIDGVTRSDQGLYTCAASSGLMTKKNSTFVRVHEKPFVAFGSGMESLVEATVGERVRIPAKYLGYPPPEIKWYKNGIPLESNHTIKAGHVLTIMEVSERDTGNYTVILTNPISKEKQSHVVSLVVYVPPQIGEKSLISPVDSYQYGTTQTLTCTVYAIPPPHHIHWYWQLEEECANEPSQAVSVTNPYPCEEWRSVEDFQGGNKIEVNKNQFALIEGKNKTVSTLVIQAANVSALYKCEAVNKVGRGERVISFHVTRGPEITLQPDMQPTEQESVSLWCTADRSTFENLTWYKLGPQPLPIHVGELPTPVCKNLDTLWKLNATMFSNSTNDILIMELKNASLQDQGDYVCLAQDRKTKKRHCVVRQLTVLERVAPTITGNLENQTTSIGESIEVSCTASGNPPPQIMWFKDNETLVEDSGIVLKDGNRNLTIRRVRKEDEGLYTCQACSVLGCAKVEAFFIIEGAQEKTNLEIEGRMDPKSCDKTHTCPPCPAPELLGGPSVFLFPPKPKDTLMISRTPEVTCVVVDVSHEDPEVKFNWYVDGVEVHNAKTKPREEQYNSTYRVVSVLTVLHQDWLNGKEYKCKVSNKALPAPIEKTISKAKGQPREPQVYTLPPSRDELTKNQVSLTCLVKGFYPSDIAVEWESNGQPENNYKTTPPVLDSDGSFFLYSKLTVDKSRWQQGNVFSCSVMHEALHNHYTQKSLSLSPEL
Protocol: Binding affinity of selected peptides from the various rounds of selection was tested using a BIAcore surface plasmon resonance spectrophotometer. Polypeptides selected from Tables 1, 2, and 3 were synthesized by solid phase synthesis using the sequence as shown in the tables above and an N-terminal flanking peptide, acetyl-Ser-Gly-, and a C-terminal flanking peptide, -Gly-Ser. A KDR-Fc fusion protein target was immobilized on a BIAcore chip, and the synthetic polypeptides were flowed over the chip to measure the KD of the polypeptides with respect to the KDR target.

Molecule	binding to KDR target (qualitative)
SNKCDHYQSGPHGKICVNY (Selected library sequence) [SEQ ID NO: 23]	no binding
SNKCDHYQSGPYGAVCLHY (Selected library sequence) [SEQ ID NO: 7]	no binding
WQECTKVLSGPGQFECEYM (Selected library sequence) [SEQ ID NO: 24]	no binding
WQECTKVLSGPGQFLCSYG (Selected library sequence) [SEQ ID NO: 6]	no binding

These molecules were tested against T2, KDR-Fc fusion (chimeric fusion of Ig Fc region with human KDR, R & D Systems #357-KD-050) (human, UniProt P35968 20-764) (assay: phage display selection on KDR-Fc beads and phage ELISA screen on KDR-Fc). Settings: not given.
T2 construct: Bought carrier-free from R & D Systems; also called KDR-Fc fusion protein target; KDR target; not shown: Ig Fc region
T2 sequence (P35968 20-764, change not shown): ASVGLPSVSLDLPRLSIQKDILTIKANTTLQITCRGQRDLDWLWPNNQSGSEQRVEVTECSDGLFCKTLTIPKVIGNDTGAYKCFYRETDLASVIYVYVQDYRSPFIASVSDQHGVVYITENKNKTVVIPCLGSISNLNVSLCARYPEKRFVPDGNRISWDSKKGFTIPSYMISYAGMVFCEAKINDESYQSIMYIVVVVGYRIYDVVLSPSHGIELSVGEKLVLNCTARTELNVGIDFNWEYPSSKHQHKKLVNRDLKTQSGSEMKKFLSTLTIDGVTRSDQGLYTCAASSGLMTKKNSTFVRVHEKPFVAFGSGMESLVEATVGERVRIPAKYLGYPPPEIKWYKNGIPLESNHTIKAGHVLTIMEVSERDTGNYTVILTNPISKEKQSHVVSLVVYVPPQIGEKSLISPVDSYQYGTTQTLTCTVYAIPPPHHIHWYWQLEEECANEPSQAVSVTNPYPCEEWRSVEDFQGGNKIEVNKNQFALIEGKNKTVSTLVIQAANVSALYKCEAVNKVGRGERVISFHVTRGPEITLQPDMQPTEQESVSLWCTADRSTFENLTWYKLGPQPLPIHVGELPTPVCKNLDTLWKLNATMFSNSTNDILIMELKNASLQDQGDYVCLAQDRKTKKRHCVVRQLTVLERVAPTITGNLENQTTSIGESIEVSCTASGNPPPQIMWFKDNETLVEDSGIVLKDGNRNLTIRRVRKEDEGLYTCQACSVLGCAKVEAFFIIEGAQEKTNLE
Protocol: The phage library was incubated with 50 μl of Trail R4 Fc fusion beads on a Labquake shaker for 1 hour at room temperature (RT). After incubation, the phage supernatant was removed and incubated with another 50 μl of Trail R4 beads. This was repeated for a total of 5 rounds of depletion, to remove non-specific Fc fusion and bead binding phage from the library. The depleted library was added to 100 μl of KDR-Fc beads and allowed to incubate on a LabQuake shaker for 1 hour at RT. Beads were then washed as rapidly as possible with 5×1 ml PBSTH using a magnetic stand (Promega) to separate the beads from the wash buffer. Phage still bound to beads after the washing were competition-eluted using soluble VEGF₁₆₅ (#100-20) purchased in carrier-free form from Peprotech (Rocky Hill, N.J.) as follows: The beads were incubated with 250 μl of VEGF (50 μg/ml,˜1 μM) overnight at room temperature (RT) on a LabQuake shaker. […]
Once the plates were prepared, each overnight phage culture was diluted 1:1 (or to 10¹⁰ pfu if using purified phage stock) with PBS, 0.05% Tween-20, 1% BSA. […] Each plate was washed 7 times with PBST (PBS, 0.05% Tween-20), then the plates were developed with HRP substrate (˜10 minutes) and the absorbance signal (630 nm) detected with a plate reader.

Molecule	binding result
B1	binds
B2	binds

What follows are molecules tested against T2, KDR-Fc fusion (chimeric fusion of Ig Fc …) (assay: BIAcore SPR, KDR-Fc immobilized on chip, synthetic peptide flowed over). Settings: not given.

Molecule	Kd [nM]
B3	1000
B4	650

The molecules below were run against T2, KDR-Fc fusion (chimeric fusion of Ig Fc …) (assay: secondary library, round 1: phage display selection against KDR-Fc as before). Settings: not given.

Molecule	binding result
B5	binds
B6	binds
B7	binds
B8	binds
